Test: soluble on expression in E. coli; label from the status in PepcDB or PDB records

Sequence | soluble on expression in E. coli
MAHHHHHHMGLYKSIYFVDGGCCAVKFNAITGLKNRTYGEGANFAIPFLETPVVFDIRNKPTEVLTATGSRDLQTVNLAVRVLYQPHVSALPDIYRNVGMEYAETVLPSLVNEIIRAVIAQFNASDLLVKRPEVSNRIGVMLAERAKRFHIDITDVSITQMSFGKEYTSAVEAKQVAQQMAERAKWRVEQAEQEKEGAILLAKGEAEAAKLIGMAVQKNPAFITLRSLEASRTIADLMRQKGSGSFYIDSDTLSLNTQTIGH | not soluble
ASTRNLMIEGENLEVLKLLQKSYAGRAKLVYIDPPYNTGKDFVYSDNFTDSLRHYLELTGQTTDGKRISSHTDASGRFHTDWLNMIYPRLKLARDLLADDGVIAVHIDEHEQHALVLVMREIFGEDNELGVAVWDKRNPKGDARGIAYQHESIVLFARDAQLLFERAPLKRPKRNAQRMLDAARGAIAGAATIADANAAYRAWVKSQTTLSGGEAMYDRISADGRVYRLVSMAWPNKKKAPDDYFVPLVHPVTGKPCPVPERGWRNPPATMQALIDKGLVEFGADETTQPQRIYFLDENMYENVPSVLPFGGSDDALMKSLGIPFDQPKPVEFAASIIGWCTDGDDLIVDFFGGSGTTGHAVMALNAADGGNRRYVLVQLPEPLDAGSKDQKAAADFCAAQRVPLNLAELTKERLRRAAARVAAEHPGTR | soluble
KASDQFIVYRASIAGPTMIAGYHWFNERGRDILIALPGLALVPQRFDLAKGVLRTFRHYYRHGLMPNVFPDADGEPLYNSIDAALWWVETLGLYLEATQDWEFLAEQFSVVQQIHKAFVGGTHYNIQVDAIDGLISWDARGVALTWMDVVIGANPVTPRHGKPVEINALWYSALCWLSRWAERLSSLELGDPVRLTKQAQRYALQAEKVKTSLQKFWNPQLGYLYDTIEPDDRRNFQIRPNAVLALSLHHCGFSAQQGSQILDLATISLLTPYGLRSLDPGDPEYKGRYEGNQEQRDRAYHQGTVWGWLIGPYIRAWQRFYPEQSLPFDWQPLLDHFLSGACLGSISEIFDGDAPHTPRGAIAQAWSVAEIIRHIQK | not soluble
MSLPHVILTVLSTRDATGYDITKEFSASIGYFWKASHQQVYRELNKMGEQGLVTCVLEPQEGKPDRKVYSITQAGRSALGEWFDQPTAHPTVRDEFSAKLMACSVQSAEPYRLQLAELVEESRKLVAHYQEIEAAYYANPAVLDKQQRLERLTLRRNLLVRQAWIQWADEVLAELNAMA | soluble
MGSDKIHHHHHHMRVLVINSGSSSIKYQLIEMEGEKVLCKGIAERIGIEGSRLVHRVGDEKHVIERELPDHEEALKLILNTLVDEKLGVIKDLKEIDAVGHRVVHGGERFKESVLVDEEVLKAIEEVSPLAPLHNPANLMGIKAAMKLLPGVPNVAVFDTAFHQTIPQKAYLYAIPYEYYEKYKIRRYGFHGTSHRYVSKRAAEILGKKLEELKIITCHIGNGASVAAVKYGKCVDTSMGFTPLEGLVMGTRSGDLDPAIPFFIMEKEGISPQEMYDILNKKSGVYGLSKGFSSDMRDIEEAALKGDEWCKLVLEIYDYRIAKYIGAYAAAMNGVDAIVFTAGVGENSPITREDVCSYLEFLGVKLDKQKNEETIRGKEGIISTPDSRVKVLVVPTNEELMIARDTKEIVEKIGR | not soluble
FEPDDVTEDVIEWVYSTFDGSYDEQPFGGDWTDPEPFRWPVTRRQAVQALDHFVTNRLTEFGSYQDAMLEDEWAMSHSLLSTSLNLGLLGPAEVIERAITAYEDGDAPLNSVEGFIRQVLGWREFLRHVYRREM | not soluble
MMTYEYILVRYGEMTTKGKNRSKFVSTLKDNVKFKLKKFPNIKIDATHDRMYIQLNGEDHEAVSERLKDVFGIHKFNLAMKVPSELEDIKKGALAAFLQVKGDVKTFKITVHRSYKHFPMRTMELLPEIGGHILENTEDITVDVHNPDVNVRVEIRSGYSYIMCDERMGAGGLPVGVGGKVMVLLSGGIDSPVAAYLTMKRGVSVEAVHFHSPPFTSERAKQKVIDLAQELTKYCKRVTLHLVPFTEVQKTINKEIPSSYSMTVMRRMMMRITERIAEERNALAITTGESLGQVASQTLDSMHTINEVTNYPVIRPLITMDKLEIIKIAEEIGTYDISIRPYEDCCTVFTPASPATKPKREKANRFEAKYDFTPLIDEAVANKETMVLQTVEVVAEEEKFEELF | not soluble
QLEKELEESAARYNQLAAQSRTITWEIDVTGLFTYVSPVVESVFGYLPNELVGAMRFYEIHPTEGRERFKTSFLEMFASKTIVEEVVHPVVAVDGRTIWMSTNALPILDEHGTLVGYRGACTDIS | not soluble

From the DeepSol protein solubility set
